T1: recombinant CTLA-4-His protein (UniProt P16410 36-161, limits assumed)
T1 construct: Obtained from Kelun-Biotech; only the UniProt entry is named; also called CLTA-4-His; not shown: His tag
T1 sequence (looked up): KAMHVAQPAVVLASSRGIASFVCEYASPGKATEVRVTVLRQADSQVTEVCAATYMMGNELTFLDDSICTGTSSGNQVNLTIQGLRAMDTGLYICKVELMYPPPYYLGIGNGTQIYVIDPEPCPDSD


How the values were obtained:
[1] = molecular target: PDL-1 expressed on CHO-PDL-1-CD3L cells (UniProt Q9NZQ7 19-290, limits assumed); assay: cell-based or functional assay
[2] = molecular target: T2, recombinant PDL-1-mFc protein (UniProt Q9NZQ7 19-238); assay: ELISA: PDL-1-mFc coated, anti-human IgG-HRP detection
T2 construct: Obtained from Kelun-Biotech; only the UniProt entry is named; not shown: mFc part
Description: On the next day, the solution in the wells was discarded, and the wells were washed with a washing buffer (a phosphate buffer solution containing 0.05% Tween-20) for one time and the solution in the wells was discarded. PBS solution containing 2% BSA was added at 100 μl/well and the wells were blocked at […] for 2 hours. Then the solution in the well was discarded. […] The plate was incubated at 37° C. for 2 hours, then the solution in the wells was discarded and the wells were washed for three times. HRP conjugated goat anti-human IgG(H+L) was added into the plate at 100 μl/well and the plate was incubated at 37° C. for 1 hour. TMB solution was added to the wells at a concentration of 100 μl/well, and the reaction was carried out at room temperature for about 5 minutes. A stop solution at 100 μl/well was added to the plate, and then the plate was put into an ELISA plate reader reading OD450 absorbance values.

[3] = molecular target: T3, recombinant CD16a (Val) protein (UniProt P08637 17-208, limits assumed); assay: ELISA: CD16a (Val) coated, antibody crosslinked with goat F(ab)2 anti-human kappa
T3 construct: Purchased from Sino Biological Inc. '(Val)' is printed without the position of the valine
Description: The recombinant CD16a (Val) protein (purchased from Sino Biological Inc.) was added into a 96-well enzyme labeled plate (purchased from Thermo) at 100 ng/well, and coating was carried out at 4° C. overnight. On the next day, the solution in the wells was discarded, the wells were washed with a washing buffer solution (a phosphate buffer solution containing 0.05% Tween-20) for one time and the solution in the wells was discarded. PBS solution containing 2% BSA was added at 100 μl/well for blocking the well at 25° C. for 2 hours, and then solution in the wells was discarded. […] The plate was incubated at 25° C. for 2 hours, then the solution in the wells was discarded and the well was washed with the washing buffer for three times. […] Then solution in the well was discarded and the well was washed with the washing buffer for five times. TMB solution was added to the well at a concentration of 100 μl/well, and the reaction was carried out at room temperature for about 30 minutes. Stop solution at 100 μl/well was added to the plate, and then the plate was put into an ELISA instrument to read OD450 absorbance values.

[4] = molecular target: T2, recombinant PDL-1-mFc protein; assay: competitive ELISA: PD1-hFc coated, antibody premixed with PDL-1-mFc, anti-mouse IgG-HRP detection; competitor PD1-hFc
Description: The recombinant PD1-hFc protein (purchased from Sino Biological Inc.) was added into a 96-well enzyme labeled plate (purchased from Thermo) at 100 ng/well, and the coating was carried out at 4° C. overnight. On the next day, the solution in the wells was discarded and wells were washed one time with washing buffer (phosphate buffer solution containing 0.05% Tween-20) and the solution in the wells was discarded again. PBS solution containing 2% BSA was added at 100 μl/well for blocking the wells at 37° C. for 2 hours, and then the solution in the wells was discarded. […] The plate was incubated at 37° C. for 2 hours, then the solution in the wells was discarded and the well was washed with the washing buffer for three times. HRP conjugated goat anti-mouse IgG(H+L) (purchased from Thermo) solution was added into the plate at 100 μl/well and the plate was incubated at 37° C. for 1 hour. TMB solution was added to the wells, and the reaction was carried out at room temperature for about 5 minutes. Stop solution was added to the plate, and then the plate was put into an ELISA instrument in order to read an OD450 light absorbance value.

[5] = molecular target: T1, recombinant CTLA-4-His protein; assay: ELISA: CTLA-4-His coated; reference AB02
Description: (§1) Two batches of recombinant CLTA-4-His proteins (obtained from Kelun-Biotech, Uniport No.: P16410) were diluted with PBS respectively, the dilutes of CTLA-4-His at 100 μl/well were added into a 96-well ELISA plate, and coating was carried out at 4° C. overnight. On the next day, the solution in the wells was discarded, and wells were washed one time with washing buffer and the solution in the wells was discarded again. PBS solution containing 2% BSA was added at 100 μl/well for blocking the well at 37° C. for 2 hours, and then the solution in the well was discarded. […] The HRP conjugated goat anti-human IgG (H+L) solution was added into the plate and the plate was incubated at 37° C. for 1 hour. TMB solution was added to the well, and the reaction was carried out at room temperature for about 8 minutes. The stop solution was added to the plate, and then the plate was put into an ELISA plate reader to read OD450 absorbance values. Fitting curves were made by the means of the experimental data, as shown in FIG. 4A and FIG. 4B, and EC50 was calculated.

[6] = molecular target: T1, recombinant CTLA-4-His protein; assay: ELISA: CTLA-4-His batch 1 coated, anti-human IgG-HRP detection
Description: as §1

[7] = molecular target: T1, recombinant CTLA-4-His protein; assay: ELISA: CTLA-4-His batch 2 coated, anti-human IgG-HRP detection
Description: as §1

[8] = molecular target: T2, recombinant PDL-1-mFc protein; assay: bridging ELISA for both antigens at once: PDL-1-mFc coated, antibody titrated, then 1.5 ug/ml CTLA-4-His, anti-His-HRP detection
Description: On the next day, the solution in the wells was discarded, wells were washed one time with washing buffer (phosphate buffer solution containing 0.05% Tween-20) and solution in the well was discarded again. PBS solution containing 2% BSA was added at 100 μl/well for blocking the wells at 37° C. for 2 hours, and then solution in the wells was discarded. The recombinant bispecific antibodies were diluted 5 folds serially at a start concentration of 100000 ng/mL to get 11 concentration gradients, and were added to the wells at 100 μl/well. The plate was incubated at 37° C. for 2 hours, then the solution in the wells was discarded and wells were washed with the washing buffer for three times. 1.5 ug/ml of the CTLA-4-His protein was added into the plate at 100 μl/well, and plate was incubated at 37° C. for 2 hours. Then the solution in the wells was discarded and wells were washed with the washing buffer for three times. HRP conjugated goat anti-his (purchased from BioLegend) was added into the plate and the plate was incubated at 37° C. for 1 hour. TMB solution was added to the wells, and the reaction was carried out at room temperature for about 5 minutes. Stop solution was added to the plate, and then the plate was put into an ELISA plate reader to read OD450 absorbance values.

T3 sequence (P08637 17-208 F176V limits assumed): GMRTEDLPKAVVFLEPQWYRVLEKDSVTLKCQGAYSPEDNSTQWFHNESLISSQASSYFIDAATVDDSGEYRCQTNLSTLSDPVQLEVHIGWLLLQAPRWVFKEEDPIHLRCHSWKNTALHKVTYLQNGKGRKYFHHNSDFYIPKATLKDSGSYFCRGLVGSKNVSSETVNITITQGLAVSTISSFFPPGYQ
T2 sequence (Q9NZQ7 19-238): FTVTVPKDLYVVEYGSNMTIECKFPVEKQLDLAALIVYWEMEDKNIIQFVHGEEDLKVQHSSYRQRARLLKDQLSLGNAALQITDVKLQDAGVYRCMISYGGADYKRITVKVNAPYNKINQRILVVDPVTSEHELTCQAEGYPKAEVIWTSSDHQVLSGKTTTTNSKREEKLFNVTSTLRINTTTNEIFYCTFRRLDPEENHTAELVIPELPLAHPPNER
Chain of PDL-1 expressed on CHO-PDL-1-CD3L cells (Q9NZQ7 19-290 limits assumed): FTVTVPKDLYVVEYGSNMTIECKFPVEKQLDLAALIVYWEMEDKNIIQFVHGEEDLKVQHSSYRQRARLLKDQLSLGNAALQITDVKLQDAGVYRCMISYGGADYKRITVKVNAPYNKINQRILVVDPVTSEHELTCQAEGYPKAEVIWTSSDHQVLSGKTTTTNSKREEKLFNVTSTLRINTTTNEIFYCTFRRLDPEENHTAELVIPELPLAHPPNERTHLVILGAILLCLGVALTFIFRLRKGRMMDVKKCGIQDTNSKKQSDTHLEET

EC50 of blocking PDL-1/PD1 in the luciferase (NFAT) reporter assay [1] [nM] | EC50 [2] [nM] | binding result [3] | EC50 [4] [nM] | EC50 as a multiple of that of AB02 [5] [times] | EC50 [6] [nM] | EC50 [7] [nM] | EC50 [8] [nM] | Binder
1.53 | 0.0324 | binds | 1.84 | 10 to 12 | 0.6 | 0.531 | 0.013 | anti-PDL-1/CTLA-4 recombinant bispecific antibody AB04 (bispecific antibody, human IgG1, kappa, The scFv is at the C-terminus of the heavy chain; also called AB4) heavy: not shown light: EIVLTQSPDTLSVTPKEKVTLTCRASQSIGTNIHWFQQKPGQSPKLLIKYASESISGVPSRFSGSGSGTDFTLTINSVEAEDAATYYCQQSNSWPYTFGQGTKLEIKRTVAAPSVFIFPPSDEQLKSGTASVVCLLNNFYPREAKVQWKVDNALQSGNSQESVTEQDSKDSTYSLSSTLTLSKADYEKHKVYACEVTHQGLSSPVTKSFNRGEC
1.82 | 0.0215 | binds | 2.6 |  | 0.107 | 0.0862 | 0.0162 | anti-PDL-1/CTLA-4 recombinant bispecific antibody AB03 (bispecific antibody, human IgG1, kappa, The scFv is at the N-terminus of the heavy chain; also called AB003) heavy: not shown light: EIVLTQSPDTLSVTPKEKVTLTCRASQSIGTNIHWFQQKPGQSPKLLIKYASESISGVPSRFSGSGSGTDFTLTINSVEAEDAATYYCQQSNSWPYTFGQGTKLEIKRTVAAPSVFIFPPSDEQLKSGTASVVCLLNNFYPREAKVQWKVDNALQSGNSQESVTEQDSKDSTYSLSSTLTLSKADYEKHKVYACEVTHQGLSSPVTKSFNRGEC

Binder | EC50 of blocking PDL-1/PD1 in the luciferase (NFAT) reporter assay [1] [nM] | EC50 [2] [nM] | binding result [3] | EC50 [4] [nM] | EC50 as a multiple of that of AB02 [5] [times] | EC50 [6] [nM] | EC50 [7] [nM] | EC50 [8] [nM]
anti-PDL-1 parental antibody AB01 (antibody, human IgG1, kappa, also called PDL-1 antibody AB01) heavy: not shown light: EIVLTQSPDTLSVTPKEKVTLTCRASQSIGTNIHWFQQKPGQSPKLLIKYASESISGVPSRFSGSGSGTDFTLTINSVEAEDAATYYCQQSNSWPYTFGQGTKLEIKRTVAAPSVFIFPPSDEQLKSGTASVVCLLNNFYPREAKVQWKVDNALQSGNSQESVTEQDSKDSTYSLSSTLTLSKADYEKHKVYACEVTHQGLSSPVTKSFNRGEC | 1.68 | 0.0155 | no binding (tested: 50 ug/ml, then 3-fold dilutions) | 3.82 |  |  |  | 
